The values that follow come from a protein production outcome set (Wang et al. 2014).

The data set in a line: label from the status in PepcDB records.
In the case of “MADTVEEPQLQNGAAPAESETEQNPIPEPQLQTEPKLTGEIPEIEADLTPEEVQSEVTDAKPEEVQSEVKPEEVKTVVTDAKPEEAQSEVKPEEVQSVVTDTKPDLTDVDLSPGGSEEIPIRSTEVEQESTTSVLKKDDDGNKTFTMRELLSELKSEEGDGTPHSSASPFSRESASQPAENNPAMDLINRIQVNDEEGRSRQRVLAFAARKYASAIERNPDDHDALYNWALILQESADNVSPDSVSPSKDDLLEEACKKYDEATRLCPTLYDAYYNWAIAISDRAKIRGRTKEAEELWEQAADNYEKAVQLNWNSSQALNNWGLVLQELSQIVPAREKEKVVRTAISKFRAAIRLQFDFHRAIYNLGTVLYGLAEDTLRTGGSGNGKDMPPGELYSQSAIYIAAAHSLKPSYSVYSSALRLVRSMLPLPHLKVGYLTAPPVGNSLAPHSDWKRTEFELNHERLLQVLKPEPREMGRNLSGKAETMSTNVERKTVKVNITEIVSVTPCADLTLPPGAGLCIDTIHGPVFLVADSWESLDGWLDAIRLVYTIYARGKSDVLAGIITG”, the protein production entry is reported as “failed”.

With “MADVVVGIQWGDEGKGKIVDRIAKDYDFVVRYQGGHNAGHTIVHKGVKHSLHLMPSGVLYPKCKNIISSAVVVSVKDLCEEISAFEDLENRLFVSDRAHVILPYHAKKDAFKEKSQNIGTTKKGIGPCYEDKMARSGIRMGDLLDDKILEEKLNAHFKAIEPFKKAYDLGENYEKDLMGYFKTYAPKICPFIKDTTSMLIEANQKGEKILLEGAQGTLLDIDLGTYPFVTSSNTTSASACVSTGLNPKAINEVIGITKAYSTRVGNGPFPSEDTTPMGDHLRTKGAEFGTTTKRPRRCGWLDLVALKYACALNGCTQLALMKLDVLDGIDAIKVCVAYERKGERLEIFPSDLKDCVPIYQTFKGWEKSVGVRKLDDLEPNVREYIRFIEKEVGVKIRLISTSPEREDTIFL”, the protein production entry is on record as “failed”.

For the sequence “MADWLIGLIMGAVEGLTEFLPVSSTGHMILTGHLIGFDDERAKVFEVVIQLGSILAVVVIFWKRLWSLVGIGKVTDGPSLNLLHIIIGMIPAGVLGVLFHSTIKEGLFGPGPVVISLVAGGILMIVAEKFSKPSTARTLDEITYKQAFTIGMFQCLALWPGFSRSGSTISGGLLARVSHTAAAEYTFILAVPMMVAASGLDLIKSWDVLSSADITLFVTGFVTAFVVAMLAIVSFLKLLSRVKLTPFAYYRFILAAVFYFFIM”, the protein production result is “failed”.

Consider “MAEAGDENLYAAARDIARALGKDPSAAGDILQILSGYGASGNRGGDPRPTPSRGGSNVNFDRALTSLERQISSYIVEDRPIWSDPVDSRTFLDSVDELLAIAGDLRSMAGDKSVAVCQSRADELIQQVMFRLQEEFGFVMDRAPDSFDSDDEFPGEEDNDTSDGVIVARPITDYKIVIEALQSSVIGDLNAIAVRMVAGGFAKECSRVYSSRRREFLEESLSRLHLRGLSMEEVQESPWQDLEDEIDRWIKAVTLIFHVFFPSERLLCDRVFSDLPVSSVTDLSFMEVCRGTTTQLLNFADAIALGSRLPERLFKVVDLYEAMQDLIPKMETLFSDRYCSPLRHEALAIHKRLGEAIRGIFMELENLIRRDPPKTAFPGGGIHPITRYVMNYLRAACKSRQSLEQILDQTGNETGSDTRPLSVQIIWVLELLESNLEGKKRTYRDPSLCFLFMMNNDKYILDKAKDNELGLVLGEDWIVKHAAKLRQYHSNYRRSSWNQVVGLLRTDGPYPKLVENLRLFKSQFDEVCKVQSQWVVSDGQLREELRSSVAGIVSPAYSNFIRRLKESPEINGRRGEPFIPYTVEDVEFIIKRLFKESSS”, for which the protein production entry is “not failed”.

Regarding “MAEARPDSLTRSRAAKPAGEGAAFSPLYRQIKELLVQSLDRGEWKPGELIPSEIDLAARFQVSQGTVRKAVDELAAEHLLLRRQGKGTFVATHHEARVRYRFLRLAPDEEGEGGRAESRILECRRLRAPAEIARALELRAGETVVTIRRQLSMNHMPTVIDDLWLPGTHFRGLTLELLTASKAPLYGLFESEFGVSMVRADEKLRAVAASPEIAPLLGVEPGRPLLQVDRISYTYGDRPMEVRRGLYLTDHYHYRNSLN”, the protein production result is listed as “not failed”.

Consider “MAEASIQIEVVYATVQRQVLMTVDVPAGSSVRQALALCGMDREFPELDLSHCPVGIFGKVVADPAARVLEAGERIEIYRPLLADPMEIRRLRAAKAREKRTLPG”, for which the protein production entry is reported as “failed”.

Turning to “MAEDKTKPSELDQGKYDADDNVKIICLGDSAVGKSKLMERFLMDGFQPQQLSTYALTLYKHTATVDGRTILVDFWDTAGQERFQSMHASYYHKAHACIMVFDVQRKVTYRNLSTWYTELREFRPEIPCIVVANKIDADINVTQKSFNFAKKFSLPLYFVSAADGTNVVKLFNDAIRLAVSYKQNSQDFMDEIFQELENFSLEQEEEDVPDQEQSSSIETPSEEAASPHS”, the protein production result is “not failed”.

For “MAEEAALNFADFYDAELALHNAHFRVTAAVGRSDRVLDVGCGAGQTTRDAARAAEAGRAHGIDLSATMLEIARRRSAEEGLPNATFELADAQNYHFAKGEFDLCISRFGVMFFADPAVAFANIANAVRPGGRFIFMVWQGRDHNEWATAIHEALDPDSTGPVAAGKAFSLSETSVTSGLLETAGFTAIEFREINEPVFYGPDPETALVTIQTFENVKNALDRPATTAEIRARLLDMLEAHQTPHGVQFDSRAWLITGGRYGDSPPCFIGDFRSA”, the protein production entry was “failed”.

As to “MAEEAKAKGNAAFSSGDFTTAINHFTEAIALAPTNHVLFSNRSAAHASLHQYAEALSDAKETIKLKPYWPKGYSRLGAAHLGLNQFELAVTAYKKGLDVDPTNEALKSGLADAEASVARSRAAPNPFGDAFQGPEMWTKLTSDPSTRGFLQQPDFVNMMQEIQKNPSSLNLYLKDQRVMQSLGVLLNVKFRPPPPQGDEAEVPESDMGQSSSNEPEVEKKREPEPEPEPEVTEEKEKKERKEKAKKEKELGNAAYKKKDFETAIQHYSTAIEIDDEDISYLTNRAAVYLEMGKYNECIEDCNKAVERGRELRSDYKMVARALTRKGTALTKMAKCSKDYEPAIEAFQKALTEHRNPDTLKRLNDAERAKKEWEQKQYFDPKLGDEEREKGNDFFKEQKYPEAIKHYTEAIKRNPNDHKAYSNRAASYTKLGAMPEGLKDAEKCIELDPTFSKGYSRKAAVQFFLKEYDNAMETYQAGLEHDPSNQELLDGVKRCVQQINKANRGDLTPEELKERQAKGMQDPEIQNILTDPVMRQVLSDLQENPSAAQKHMQNPMVMNKIQKLISAGIVQMK”, the protein production entry is listed as “failed”.

“MAEHGETTEDGDSEIDYEFLAELSALLGVDAVQLAKSQEEEEHKERMKMKKGFNSQMRSEAKRLKTFETYDTFRSWTPQEMAAAGFYHTGVRLGVQCFCCSLILFGNSLRKLPIERHKKLRPECEFLLGKDVGNIGKYDIRVKRPEKMLRGGKARYHEEEARLESFEDWPFYAHGTSPRVLSAAGFVFTGKRDTVQCFSCGGSLGNWEEGDDPWKEHAKWFPKCEFLQSKISSEEIAQYIQGYGGFVHVTGEHFVNSWVRRELPMVSGRKDIVQCFSCGGCMENWAEGDDPIQEHNKFFPK”: the protein production entry is on record as “failed”.

As to “MAEIDYKKVTGMIHSTESFGSVDGPGIRFIIFMQGCKMRCQYCHNPDTWEMETNNSKERTVEDVLKEALRYKHFWGKDGGITVSGGEAMLQIDFITALFIEAKKLGIHTTLDTCGFAYRATPEYHAILEKLLDVTDLVLLDLKEIDSEQHKIVTRQSNKNILQFARYLSDRGTPVWIRHVLVPGLTDIDDHLKRLGEFVQTLDNVDKFEVLPYHTMGEFKWRELGIPYPLAGVKPPTPERVKNAKDIMKTESYTEYLKRIQN”, the protein production result is “not failed”.

Turning to “MAEIIDKTLNMLVTGQRARVIQIKGKGNSRKRLLEMGMVPGTVLSVTKKAPLGDPVDFKLKGYNLSLRKQEAEMIVVEPLEG”, the protein production result is on record as “failed”.

On to “MAEKKKKNKKQLSSFSILFIILIVLGIVTVLLNGQPFTPREIDGKMVDHVVGAKLSDIIMAPFNGFKDAIEINIFILVLGGFLNIVTQTGALEAGIQSVVKKLKGNELKIIPILMILFSIGGSTYGMAEETIPFYGLLSATMVAAGFDTFVAVGTVLLGAGSGVIGSTVNPFSTGVAMDALRGIGIQPNTGIILIVGAILWAASTSYSIFIVMRYAKKVKADKGSTILSLQEQEDMEKTYGQAASKEMPFTNRHKKILMVFAFCFVIMIVSLIPWNDFGVTIFKGWTSVLTGNSFGDWYFGDLAMWFFLLGIIAALIGRFTEKETIEAFIDGAKDMLSVVLIIVVARGASVLMSKTYLDSFILDKAAGLLQGLSPVLFVIGAFVLYLGLSFLIPSTSGLAYVSIPVMGALAKNIGLSPEVMVMIFASGCGLINLITPTSGVVMGGLEISKVQYATWTKFMAKPMIVLGLINLIILIGAMLLFS”, for which the protein production entry is given as “failed”.

As for “MAEKPKLHYFNARGRMESTRWLLAAAGVEFEEKFIKSAEDLDKLRNDGYLMFQQVPMVEIDGMKLVQTRAVLNYIASKYNLYGKDIKERALIDMYIEGIADLGEMILLLPVCPPEEKDAKLALIKEKIKNRYFPAFEKVLKSHGQDYLVGNKLSRADIHLVELLYYVEELDSSLISSFPLLKALKTRISNLPTVKKFLQPGSPRKPPMDEKSLEEARKIFRF”, the protein production result is “not failed”.

With “MAELEKTFALIKPDAVRAGKAQEIMQLIELNGFTIIAKQKLQLTRARAEEFYGEHKGKEFFPKLVNFMTSGPIWALVLAKPGAILAWRALMGPTNVFKARAEQPKCLRALYGTDGTQNATHGSDSPISAAREIKFFFPTLSGDPTIYAEPTAAAEYITKRIQPALAKALAALAREKPSADKFEAITFVAGYLLQNNPNKPKV”, the protein production result was “not failed”.

For the sequence “MAELKSLAKDTAIYGASSIIGKFLNYFLVPIYTFSLPAASGGYGVITKMYAIVALLLVVLTFGMETGFFRFANKGDDDPKKVYSVSLLMVGGVSLLFLLLCLVFLNPIAGLMGYSEHPWYLGMMLIVLAMDAIQAIPFAYLRYKKRPIKFAGLKLLFIFVSILLNILYFVVMKGDDVGVAFLINLICSFVVMLGLIPEFREFRYCPDRLLMKRMLYYSFPILILGVAGIVNQVGDKIIFPFVYPDKVEADVQLGIYSAATKIAMIMAMITQAFRFAYEPFVFGKSKDKDNKRIYAQAMKFFIIFTLLAFLAVMFYLDILRYIIAEDYWEGLRVVPIVMIAEMFMGIYFNLSFWYKLTDDTRWGAYFSIIACLTVVLMNIFLIPVYGYVACAWAGFTGYAIAMLLSYFVGQKKYPIAYDLRGIGCYVGLAIILYLIGEWIPIHNTVLLLAFRTVLLLLFIAYIIKRDLPLSQIPVINRIIKKK”, the protein production entry is given as “not failed”.

Consider “MAELQMLLEEEIPGGRRALFDSYTNLERVADYCENNYIQSADKQRALEETKAYTTQSLASVAYLINTLANNVLQMLDIQASQLRRMESSINHISQTVDIHKEKVARREIGILTTNKNTSRTHKIIAPANLERPVRYIRKPIDYTILDDIGHGVKVSTQNMKMGGLPRTTPPTQKPPSPPMSGKGTLGRHSPYRTLEPVRPPVVPNDYVPSPTRNMAPSQQSPVRTASVNQRNRTYSSSGSSGGSHPSSRSSSRENSGSGSVGVPIAVPTPSPPSVFPGHPVQFYSMNRPASRHTPPTIGGSLPYRRPPSITSQTSLQNQMNGGPFYSQNPVSLAPPPPSILQVTPQLPLMGFVARVQENISDTPPPPPPVEEPVFDESPPPPPPPEDYEEEEAAVVEYSDPYAEEDPPWAPRSYLEKVVAIYDYTKDKEDELSFQEGAIIYVIKKNDDGWYEGVMNGVTGLFPGNYVESIMHYSE”, for which the protein production entry is reported as “not failed”.

Turning to “MAEPGIDKLFGMVDSKYRLTVVVAKRAQQLLRHGFKNTVLEPEERPKMQTLEGLFDDPNAETWAMKELLTGRLVFGENLVPEDRLQKEMERIYPGEREE”, the protein production entry is “not failed”.

Regarding “MAEPRENLMDWLRDAHAMEQQAEQMLKAQAARIEHYPKLKARIEQHLEETLGQQRLVEASIERLGGSPSVVKDAMGKMAAFGQAMGGMTTSDEIVKGAMASYVFENLEIATYTALLGAAKTVGDVETQRMCEQILPQEEAMAKWLLEHLPELTEEFLVRDATPGVTAKK”, the protein production entry is listed as “failed”.
